Tested on: Bacillus subtilis
Experiment: cleaved RNA product abundance (RNA/gDNA barcode ratio) relative to median wild-type variant (ratio to wild type); higher = more accumulation of the downstream cleavage product
Conditions: cleavage site: cggR-gapA (positions -7 to +36 mutated)
Procedure, shortened: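 Oligos with a 9% error rate were used to build barcoded, mutagenized RNase Y cleavage-site windows within truncated aprE or tetM reporter mRNAs, which were integrated into the B. subtilis chromosome. Cultures were grown in LB at 37°C between OD600 0.0003 and 0.3. Cleaved RNA was gel-selected, reverse transcribed and barcode-sequenced, as were genomic DNA barcodes, and UMIs were collapsed. Cleaved product abundance is the scaled RNA:gDNA barcode ratio, with the median construct carrying the unmutated site as reference.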

[1] = experiment (reporter, strain, medium): exp 4a: truncated aprE reporter, strain BJT201 with 2% xylose (RNase J1 expressed)
[2] = experiment (reporter, strain, medium): exp 2b: truncated aprE reporter, strain BJT200

Row | Sequence | cleaved RNA product abundance [1] | cleaved RNA product abundance [2] | cleaved RNA product abundance (experiment (reporter, strain, medium): exp 6: tetM reporter, strain 168)
1 | ACAGACGAAGGAGCCGCAAAGAAGTTATTAAGTGATGAATAATCCCTCAATATAAATACCTCTCACTTATTTAAA | 0.105 | – | –
2 | ACAGACGAAGGAGCCGCAAAGAAGTTATTAAGTGATGAATAATCCCTCAATATAAATATCTCTCACTTATTTAAA | 0.126 | 0.109 | 0.127
3 | ACAGACGAAGGAGCCGCAAAGAAGTTATTAAGTGATGAATAATCCCTCAATATAAATCTCTCTCACTTATTTAAA | – | 0.116 | –
4 | ACAGACGAAGGAGCCGCAAAGAAGTTATTAAGTGATGAATAATCCCTCAATATAACTATCTCTCACTTATTTAAA | – | 0.146 | –
5 | ACAGACGAAGGAGCCGCAAAGAAGTTATTAAGTGATGAATAATCCCTCAATATAATTATCTCTCACTTATTTAAA | 0.0685 | – | –
6 | ACAGACGAAGGAGCCGCAAAGAAGTTATTAAGTGATGAATAATCCCTCAATATACATATCTCTCACTTATTTAAA | 0.19 | 0.0962 | –
7 | ACAGACGAAGGAGCCGCAAAGAAGTTATTAAGTGATGAATAATCCCTCAATATATATATCTCTCACTTATTTAAA | 0.107 | 0.115 | –
8 | ACAGACGAAGGAGCCGCAAAGAAGTTATTAAGTGATGAATAATCCCTCAATCTAAATATCTCTCACTTATTTAAA | 0.0609 | – | –
9 | ACAGACGAAGGAGCCGCAAAGAAGTTATTAAGTGATGAATAATCCCTCAATTTAAATATCTCTCACTTATTTAAA | 0.0598 | 0.0957 | –
10 | ACAGACGAAGGAGCCGCAAAGAAGTTATTAAGTGATGAATAATCCCTCATTATAAATATCTCTCACTTATTTAAA | 0.151 | 0.0978 | –
11 | ACAGACGAAGGAGCCGCAAAGAAGTTATTAAGTGATGAATAATCCCTCCATATAAATATCTCTCACTTATTTAAA | 0.104 | – | –
12 | ACAGACGAAGGAGCCGCAAAGAAGTTATTAAGTGATGAATAATCCCTCTATATAAATATCTCTCACTTATTTAAA | 0.128 | 0.109 | –
13 | ACAGACGAAGGAGCCGCAAAGAAGTTATTAAGTGATGAATAATCCCTGAATATAAATATCTCTCACTTATTTAAA | 0.0547 | 0.0871 | –
14 | ACAGACGAAGGAGCCGCAAAGAAGTTATTAAGTGATGAATAATCCCTTAATATAAATATCTCTCACTTATTTAAA | 0.388 | 0.6 | –
15 | ACAGACGAAGGAGCCGCAAAGAAGTTATTAAGTGATGAATAATCCGTCAATATAAATATCTCTCACTTATTTAAA | 0.0842 | 0.103 | –
16 | ACAGACGAAGGAGCCGCAAAGAAGTTATTAAGTGATGAATAATCCTTCAATATAAATATCTCTCACTTATTTAAA | 0.145 | 0.112 | –
17 | ACAGACGAAGGAGCCGCAAAGAAGTTATTAAGTGATGAATAATCGCTCAATATAAATATCTCTCACTTATTTAAA | – | 0.522 | –
18 | ACAGACGAAGGAGCCGCAAAGAAGTTATTAAGTGATGAATAATCTCTCAATATAAATATCTCTCACTTATTTAAA | 0.172 | 0.113 | –
19 | ACAGACGAAGGAGCCGCAAAGAAGTTATTAAGTGATGAATAATGCCTCAATATAAATATCTCTCACTTATTTAAA | – | 0.1 | –
20 | ACAGACGAAGGAGCCGCAAAGAAGTTATTAAGTGATGAATAATTCCTCAATATAAATATCTCTCACTTATTTAAA | 0.14 | 0.0685 | –
21 | ACAGACGAAGGAGCCGCAAAGAAGTTATTAAGTGATGAATACTCCCTCAATATAAATATCTCTCACTTATTTAAA | 0.181 | – | –
22 | ACAGACGAAGGAGCCGCAAAGAAGTTATTAAGTGATGAATAGTCCCTCAATATAAATATCTCTCACTTATTTAAA | 0.14 | – | –
23 | ACAGACGAAGGAGCCGCAAAGAAGTTATTAAGTGATGAATATTCCCTAAATATAAATATCTCTCACTTATTTAAA | – | 0.115 | –
24 | ACAGACGAAGGAGCCGCAAAGAAGTTATTAAGTGATGAATATTCCCTCAATATAAATATCTCTCACTTATTTAAA | 0.102 | – | –
25 | ACAGACGAAGGAGCCGCAAAGAAGTTATTAAGTGATGAATCATCCCTCAATATAAATATCTCTCACTTATTTAAA | 0.147 | 0.125 | –
26 | ACAGACGAAGGAGCCGCAAAGAAGTTATTAAGTGATGAATTATCCCTCAATATAAATATCTCTCACTTATTTAAA | 0.249 | 0.104 | –

Row | Sequence | cleaved RNA product abundance [1] | cleaved RNA product abundance [2] | cleaved RNA product abundance (experiment (reporter, strain, medium): exp 6: tetM reporter, strain 168)
27 | ACAGACGAAGGAGCCGCAAAGAAGTTATTAAGTGATGACTAATCCCTCAATATAAATATCTCTCACTTATTTAAA | 0.111 | 0.081 | –
28 | ACAGACGAAGGAGCCGCAAAGAAGTTATTAAGTGATGATTAATCCCTCAATATAAATATCTCTCACTTATTTAAA | – | 0.112 | –
29 | ACAGACGAAGGAGCCGCAAAGAAGTTATTAAGTGATGTATAATCCCTCAATATAAATATCTCTCACTTATTTAAA | 0.144 | 0.088 | –
30 | ACAGACGAAGGAGCCGCAAAGAAGTTATTAAGTGATTAATAATCCCTCAATATAAATATCTCTCACTTATTTAAA | 0.0979 | 0.112 | –
31 | ACAGACGAAGGAGCCGCAAAGAAGTTATTAAGTGGTGAATAATCCCTCAATATAAATATCTCTCACTTATTTAAA | 0.103 | – | –
32 | ACAGACGAAGGAGCCGCAAAGAAGTTATTAAGTGTTGAATAATCCCTTAATATAAATATCTCTCACTTATTTAAA | 0.146 | – | –
33 | ACAGACGAAGGAGCCGCAAAGAAGTTATTAAGTTATGAATAATCCCTCAATATAAATAACTCTCACTTATTTAAA | 0.117 | – | –
34 | ACAGACGAAGGAGCCGCAAAGAAGTTATTAAGTTATGAATAATCCCTCAATATAAATATCTCTCACTTATTTAAA | 0.13 | 0.0915 | –
35 | ACAGACGAAGGAGCCGCAAAGAAGTTATTAAGTTATGAATAATCCGTCAATATAAATATCTCTCACTTATTTAAA | – | 0.078 | –
36 | ACAGACGAAGGAGCCGCAAAGAAGTTATTAATAGATGAATAATCCCTCAATATAAATATCTCTCACTTATTTAAA | 0.116 | 0.0972 | –
37 | ACAGACGAAGGAGCCGCAAAGAAGTTATTAATAGATTAATAATCCCTCAATATAAATATCTCTCACTTATTTAAA | 0.135 | – | –
38 | ACAGACGAAGGAGCCGCAAAGAAGTTATTAATCGATGAATAATCCCTCAATATAAATATCTCTCACTTATTTAAA | 0.164 | – | –
39 | ACAGACGAAGGAGCCGCAAAGAAGTTATTAATGAATGAATAAACCCTCAATATAAATATCTCTCACTTATTTAAA | 0.133 | – | –
40 | ACAGACGAAGGAGCCGCAAAGAAGTTATTAATGAATGAATAATCCCTCAATATAAATATCTCTCACTTATTTAAA | 0.137 | 0.0941 | –
41 | ACAGACGAAGGAGCCGCAAAGAAGTTATTAATGCATGAATAATCCCTCAATATAAATATCTCTCACTTATTTAAA | 0.0823 | 0.0867 | –
42 | ACAGACGAAGGAGCCGCAAAGAAGTTATTAATGGAAGAATAATCCCTCAATATAAATATCTCTCACTTATTTAAA | 0.114 | 0.0884 | –
43 | ACAGACGAAGGAGCCGCAAAGAAGTTATTAATGGACGAATAATCCCTCAATATAAATATCTCTCACTTATTTAAA | 0.0953 | 0.0737 | –
44 | ACAGACGAAGGAGCCGCAAAGAAGTTATTAATGGATAAATAATCCCTCAATATAAATATCTCTCACTTATTTAAA | 0.116 | 0.102 | –
45 | ACAGACGAAGGAGCCGCAAAGAAGTTATTAATGGATCAATAATCCCTCAATATAAATATCTCTCACTTATTTAAA | 0.127 | 0.0839 | –
46 | ACAGACGAAGGAGCCGCAAAGAAGTTATTAATGGATGAAAAATCCCTCAATATAAATATCTCTCACTTATTTAAA | 0.166 | 0.111 | –
47 | ACAGACGAAGGAGCCGCAAAGAAGTTATTAATGGATGAACAATCCCTCAATATAAATATCTCTCACTTATTTAAA | 0.143 | – | –
48 | ACAGACGAAGGAGCCGCAAAGAAGTTATTAATGGATGAATAAACCCTCAATATAAATATCTCTCACTTATTTAAA | 0.107 | 0.0999 | –
49 | ACAGACGAAGGAGCCGCAAAGAAGTTATTAATGGATGAATAACCCCTCAATATAAATATCTCTCACTTATTTAAA | 0.0925 | 0.0893 | –
50 | ACAGACGAAGGAGCCGCAAAGAAGTTATTAATGGATGAATAAGCCCTCAATATAAATATCTCTCACTTATTTAAA | 0.107 | – | –
51 | ACAGACGAAGGAGCCGCAAAGAAGTTATTAATGGATGAATAATACCTCAATATAAATATCTCTCACTTATTTAAA | 0.126 | 0.0824 | –

Source: the supplement of paper PMC11780869
